Data from publication PMC10679481.

Legend:
PKA-C-eGFP [1] = molecular target: PKA-C-eGFP (UniProt P17612); assay: co-IP; nanobead-based sc-SiMPull: single HEK293T cells coexpressing PKA-C-eGFP and PKA-R-HA lysed in situ in microwells, anti-GFP-coated nanobeads, PKA-R-HA visualised by immunostaining with anti-HA and fluorophore-conjugated 2nd antibody
PKA-C-eGFP [2] = molecular target: PKA-C-eGFP (UniProt P17612); assay: co-IP; nanobead-based sc-SiMPull: single HEK293T cells trapped in microwells and lysed in situ, anti-GFP-coated magnetic nanobeads capture PKA-C-eGFP, mCherry seen directly by confocal microscopy; control conditions (no cAMP); room temperature

PKA-R-HA (from UniProt P10644 1-381) (natural protein)
percent of GFP spots colocalized with the anti-HA (Alexa 561) spots (PKA-C-eGFP [1]): 60%

PKA-R-mCherry (from UniProt P10644 1-381) (natural protein)
percent of GFP and mCherry signals colocalized (PKA-C-eGFP [2]): 70%
